According to article PMC3474754:

Molecular target: full-length uncleaved Reelin (FL-Reelin) (UniProt Q60841)
Test: cross-linking; BS3 cross-linker, 30 minutes on ice, on FL- or C-cleaved Reelin in conditioned medium; anti-Reelin (G10) immunoblot

full-length uncleaved Reelin (FL-Reelin), Q60841 27-3461
stoichiometry N: 2
